Laboratory results taken from patent publication US8357518B2, “Thermostable enzymes for the hydrolysis of mannan-containing polysaccharides” (The Board of Trustees of the University of Illinois, priority 2010, dated 2013).

Legend:
Experiment in all cases: Catalytic efficiency with oligosaccharides, HPAEC (Man5A-TM2)
Type in all cases: biochemical, Caldanaerobius polysaccharolyticus
Conditions in all cases: other: Man5A-TM2 0.3 μM, oligosaccharide 30 μM, citrate buffer 50 mM, pH 5.5, 5 min, triplicate
[1] = substrate: OC[C@H]1O[C@@H](O[C@H]2[C@H](O)[C@@H](O)[C@H](O[C@H]3[C@H](O)[C@@H](O)[C@H](O[C@H]4[C@H](O)[C@@H](O)C(O)O[C@@H]4CO)O[C@@H]3CO)O[C@@H]2CO)[C@H](O)[C@@H](O)[C@@H]1O
Method: (§1) Cloning, expression, and purification of Man5A-TM1, Man5A-TM2 and Man5B. C. polysaccharolyticus was cultured in TYG medium and DNA was isolated from mid-log cultures and purified using the Qiagen DNeasy Blood and Tissue kit with an integrated RNase treatment step. The genome of C. polysaccharolyticus was partially sequenced by the W. M. Keck Biotechnology Center at the University of Illinois at Urbana-Champaign. A Newbler assembly was generated which is comprised of ½ plate of FLX PE 454 data and ½ plate of 8 kb paired-end GSFLX Titanium data using a Genome Sequencer instrument from 454 Life Sciences (Branford, Conn.). The partial genome sequence was uploaded onto the Rapid Annotation using Subsystem Technology (RAST) server (Aziz et al., BMC Genomics, 9:75, 2008). Auto-annotation of the C. polysaccharolyticus partial genome sequence identified ORF0760 as a gene predicted to encode a bifunctional β-D-mannanase/endoglucanase (Man5B). Man5A was previously identified in a recombinant phage library of C. polysaccharolyticus genomic DNA, which was screened for endoglucanase activity (Cann et al., J Bacteriol, 181:1643, 1999) and the full sequence of this gene was also identified in the partial genome sequence for C. polysaccharolyticus.
(§2) The DNA sequence corresponding to man5B was amplified by the PicoMaxx high fidelity PCR kit using genomic DNA as the template with the primer set Man5B-Forward and Man5B-Reverse (Table 1-1). The primers were engineered to incorporate a 5′-[…] (SEQ ID NO: 54) extension in Man5B-F and a 5′-[…] (SEQ ID NO: 55) extension in Man5B-R, which facilitated subsequent directional cloning. The resultant man5B amplicon was then digested with T4 DNA polymerase exonuclease activity, annealed with a similarly digested pET-46b vector and introduced into E. coli JM109 by electroporation. Man5A-TM1 was amplified using genomic DNA as template with primers Man5A-TM1-F and Man5A-TM1-R (Table 1-1). The primer sets for Man5A-TM1 and Man5A-TM2 were designed to include 5′-NdeI and 3′-XhoI restriction sites for subsequent directional cloning. The resulting amplicons were then cloned into the pGEM-T vector via TA-cloning and subcloned in-frame with the hexahistidine (His6) encoding sequence of a modified pET-28a expression vector via its NdeI-XhoI polylinker site. The truncated protein Man5A-TM2 originally named ManA-SLH-CBD was cloned as described in a previous study (Cann et al., J Bacteriol, 181:1643, 1999). Expression of each of the resulting gene constructs yielded fusion proteins containing an N-terminal polyhistidine tag sequence to facilitate affinity purification via metal chelate chromatography. The resulting plasmid constructs pET46-Man5B, pET28a-Man5A-TM1, and pET-28a-Man5A-TM2 were sequenced to confirm the integrity of the cloned genes (W. M. Keck Center for Comparative and Functional Genomics at the University of Illinois at Urbana-Champaign).
(§3) The plasmid constructs were then introduced into E. coli BL-21 CodonPlus (DE3) RIL competent cells by heat shock, and grown overnight in lysogeny broth (LB) agar medium supplemented with ampicillin (100 μg/mL) and chloramphenicol (50 μg/mL) at 37° C. After 12 h, single colonies were selected and used to inoculate fresh LB (10 mL) supplemented with the antibiotics above at the same concentrations, followed by culturing with aeration for 8 h at 37° C. The pre-cultures were then inoculated into fresh LB (1 L) supplemented with ampicillin and chloramphenicol and the cultures were incubated at 37° C. with vigorous aeration (225 rpm/min). The cultures were grown to an optical density of 0.3 at 600 nm, and the temperature was shifted to 16° C. and gene expression was induced by the addition of 0.1 mM isopropyl β-D-thiogalactopyranoside (IPTG). […]

[2] = substrate: OC[C@H]1O[C@@H](O[C@H]2[C@H](O)[C@@H](O)[C@H](O[C@H]3[C@H](O)[C@@H](O)[C@H](O[C@H]4[C@H](O)[C@@H](O)[C@H](O[C@H]5[C@H](O)[C@@H](O)C(O)O[C@@H]5CO)O[C@@H]4CO)O[C@@H]3CO)O[C@@H]2CO)[C@H](O)[C@@H](O)[C@@H]1O
Method: as §1, §2, §3

[3] = substrate: OC[C@H]1O[C@@H](O[C@H]2[C@H](O)[C@H](O)[C@H](O[C@H]3[C@H](O)[C@H](O)[C@H](O[C@H]4[C@H](O)[C@H](O)[C@H](O[C@H]5[C@H](O)[C@H](O)C(O)O[C@@H]5CO)O[C@@H]4CO)O[C@@H]3CO)O[C@@H]2CO)[C@@H](O)[C@@H](O)[C@@H]1O
Method: as §1, §2, §3

[4] = substrate: OC[C@H]1O[C@@H](O[C@H]2[C@H](O)[C@@H](O)[C@H](O[C@H]3[C@H](O)[C@@H](O)[C@H](O[C@H]4[C@H](O)[C@@H](O)[C@H](O[C@H]5[C@H](O)[C@@H](O)[C@H](O[C@H]6[C@H](O)[C@@H](O)C(O)O[C@@H]6CO)O[C@@H]5CO)O[C@@H]4CO)O[C@@H]3CO)O[C@@H]2CO)[C@H](O)[C@@H](O)[C@@H]1O
Method: as §1, §2, §3

[5] = substrate: OC[C@H]1O[C@@H](O[C@H]2[C@H](O)[C@H](O)[C@H](O[C@H]3[C@H](O)[C@H](O)[C@H](O[C@H]4[C@H](O)[C@H](O)C(O)O[C@@H]4CO)O[C@@H]3CO)O[C@@H]2CO)[C@@H](O)[C@@H](O)[C@@H]1O
Method: as §1, §2, §3

[6] = substrate: OC[C@H]1O[C@@H](O[C@H]2[C@H](O)[C@H](O)[C@H](O[C@H]3[C@H](O)[C@H](O)[C@H](O[C@H]4[C@H](O)[C@H](O)[C@H](O[C@H]5[C@H](O)[C@H](O)[C@H](O[C@H]6[C@H](O)[C@H](O)C(O)O[C@@H]6CO)O[C@@H]5CO)O[C@@H]4CO)O[C@@H]3CO)O[C@@H]2CO)[C@@H](O)[C@@H](O)[C@@H]1O
Method: as §1, §2, §3

B1: Caldanaerobius polysaccharolyticus endo-β-mannanase Man5A truncation mutant Man5A-TM2, SEQ ID NO: 29 (Caldanaerobius polysaccharolyticus) (protein)
chain: AGTSGDGRFHVVGNKIVDPDGKDFIIKGVNIQGYRSWEKRSVLQDVHLIADVWKFNTVRLNCFIGQNNWGEGTGANNDIDAIIKAFTAKKVVVEIDLHDTTGYPPLSNPPPAPGQPSLDQAIAWFKELAAKYKDNPYVWFNTMNEPGSSTAPLDPQWKVANEEIIKAIRSTGADNIIVVDGWSYANEGIEQNTPTVDEKRSAVLTYGQDLLNADSAKNTIFAFHNYNEGDIQKKVEDYIDRANAKGLYVFMEEYGKDYSDAAKEGVKSGLQAVMNKGAGRIYWNWDGYDLYDLTSGTGRGSGWEINKTDGSKPTNLSWVGDKIWDDNHGITPTFDDQNPKVDLALERLIANNNGFKAGDKVQFTTFLRNSGDLPIGKDSKVVVKFYVDGVQLGDPVEISGGIAVGQRIPVTSPELTVSKTDFTVKAVIDSSSTYADGAEDAVIENNWIEAAFNSTAPSSGYELVVTGIKITPDTVKEGDYVQAQVTVANQGPEATPVTNIIGWFYVNGYYYTLDDAAKSCAEQDNVTLKPGESITLSTKVKYRAAAPFNFSFVLENLYADDQNQSNNSITVNVPVK
[1]
  kcat/Km: 1800 ± 500 M⁻¹ s⁻¹
[2]
  kcat/Km: 2200 ± 300 M⁻¹ s⁻¹
[3]
  kcat/Km: 12000 ± 2000 M⁻¹ s⁻¹
[4]
  kcat/Km: 25000 ± 8000 M⁻¹ s⁻¹
[5]
  kcat/Km: 11000 ± 1000 M⁻¹ s⁻¹
[6]
  kcat/Km: 28000 ± 8000 M⁻¹ s⁻¹
